Experimental data taken from PMC3601010, “The complete N-terminal extension of heparin cofactor II is required for maximal effectiveness as a thrombin exosite 1 ligand” (BMC Biochemistry, 2013).
Values belong to the substance of their own block, whether it stands above or below them.

Experiments:
α-thrombin [1] = biological target: α-thrombin (UniProt P00734)
[2] = biological target: Biotinylated HCII 1-75 (human); assay: SPR; BIAcore X, 25°C; biotinylated HCII 1-75 on streptavidin-coated chip; thrombin 0-30 μM flowed at 20 μL/minute in 10 mM HEPES, 150 mM NaCl, 0.005% Tween-20, pH 7.7; one site binding model of plateau responses
α-thrombin [3] = biological target: α-thrombin (UniProt P00734); remark: listed apart in the source
α-thrombin [4] = biological target: α-thrombin (UniProt P00734); remark: listed apart in the source
α-thrombin [5] = biological target: α-thrombin (UniProt P00734); assay: SPR; competition: BIAcore X, 25°C; biotinylated HCII 1-75 on streptavidin-coated chip; peptides combined with 250 nM thrombin immediately before flowing over the chip; Ki from IC50 and the KD of 340 nM
α-thrombin [6] = biological target: α-thrombin (UniProt P00734); assay: ELISA; competition: HCII 1-75 immobilised on microtiter wells; competitor peptides added with 5 nM α-thrombin; ratio of absorbance with and without competitor; IC50 by linear regression of log-transformed plots

Substance: Biotinylated HCII 1-75 (domain or fragment)
concentration required to double the thrombin clotting time (data not shown) (α-thrombin [1]): 11.7 µM

Substance: FPR-ck-thrombin (thrombin inactivated at its active site using D-Phe-L-Pro-L-Arg chloromethylketone) (from UniProt P00734 364-622) (enzyme)
Kd [2]: 330 nM

Substance: sulfo-Hir 54-65 (synthetic peptide containing the C-terminal 12 residues of hirudin variant 1, with Tyr63 sulfated) (from UniProt P01050 54-65)
concentration required to double the thrombin clotting time of diluted citrated human plasma (α-thrombin [3]): 0.15 µM | Ki (α-thrombin [5]): 54 nM | IC50 (α-thrombin [6]): 140 nM

Results, then the substance that gave them:

concentration required to double the thrombin clotting time of diluted citrated human plasma (α-thrombin [3]): 13 µM | fold reduction of the apparent second-order rate constant of inhibition of 14 nM thrombin by 140 nM plasma-derived HCII with 55 μg/mL standard heparin, 250 μM peptide (Figure 5A) (α-thrombin [4]): 2.8 fold | fold reduction of the apparent second-order rate constant of inhibition of thrombin by plasma-derived HCII with 1.4 μM dermatan sulfate, 250 μM peptide (Figure 5B) (α-thrombin [4]): 7 fold | concentration required to double the thrombin clotting time, unmodified polypeptide compared with the biotinylated one (data not shown) (α-thrombin [1]): 12.8 µM | Ki (α-thrombin [5]): 2600 nM | IC50 (α-thrombin [6]): 11000 nM
Substance: HCII 1-75 (recombinant peptide containing the first 75 residues of human heparin cofactor II and a nonapeptide N-terminal MGSH6 tag) (domain or fragment)

Kd [2]: 340 nM
Substance: α-thrombin (from UniProt P00734 364-622) (enzyme)
